Patent US20210292393A1 (published 2021)

B1: anti-SARS-CoV-2 antibody 1075 (antibody, V domains shown)
VH: QVQLVQSGAEVKKPGASVKVSCKVSGYTLIELSMHWVRQAPGKGLEWMGGFDPEDGETIYAQKFQGRVTMTEDTSTDTAYMELSSLRSEDTAVYYCATEWAYYGSGSYLGYWGQGTLVTVSS
VL: EIVMTQSPATLSVSPGERATLSCRASQSVSSNLAWFQQKPGQAPRLLIYGASTRVTVIPARFSGSGSGTEFTLTISSLQSEDFAVYYCQQYNNWPRTFGQGTKVEIK
B2: anti-SARS-CoV-2 antibody 1009 (antibody, V domains shown)
VH: QLQLQESGPGLVKPSQTLSLTCTVSGGSISSGSYYWSWIRQPAGKGLEWIGSIYTSGSTYYNPSLKSRVTISVDTSKNQFSLKLSSVTAADTAVYYCARKNWLQGSFDYWGQGTLVIVSS
VL: NFMLTQPHSVSESPGKTVTISCTRSSGSIANNYVQWYQQRPGSAPTTVIYEDNQRPSGVPDRFSGSIDSSSNSASLTISGLKTEDEADYYCQSYDTSNHGVFGGGTKLTVL
B3: anti-SARS-CoV-2 antibody 1000 (antibody, V domains shown)
VH: EVQLVESGGGLVQPGRSLRLSCAASGFTFDDYAMHWVRQAPGEGLEWVSGISWNSGSIGYADSVKGRFTISRDNAKNSLYLQMNSLRAEDTALYYCAKDTRFSFGTIAAAVSGYGMDVWGQGTTVTVSS
VL: QSALTQPASVSGSPGQSITISCTGTSSDVGIFNLVSWYQQHPGKAPKLMIYEVTKRPSGVSNRFSGSKSGNTASLTISGLQAEDEADYYCCSYAGSYVFGTGTKVTVL
B4: anti-SARS-CoV-2 antibody 1027 (antibody, V domains shown)
VH: EVQLVESGGGLVQPGGSLRLSCAASGFTVSSNYMSWVRQAPGKGLEWVSIIYSGGSTFYADSVKGRFTISRDSSKNTLYLQMSSLRAEDTAVYYCARDLDYYGMDVWGQGTTVTVSS
VL: DIQLTQSPSFLSAPVGDRVTITCRASQGISSYLAWYQQKPGKAPKLLIYGASTLQSGVPSRFSGSGSGTEFTLTISSLQPEDFATYYCQQLNSYQRFTFGPGTKVEIK
B5: anti-SARS-CoV-2 antibody 923 (antibody, V domains shown)
VH: EVQLVESGGGVVRPGGSLRLSCAASGFIFDDYDMTWVRQAPGKGLEWVSGISWNGGNTGYADSVKGRFTISRDNAKNSLYLQMNSLRAEDTALYHCAVIMSPIPRYSGYDWAGGAFDIWGQGTMVTVSS
VL: SSELTQDPAVSVALGQTVRITCQGDSLRSYYASWYQQKPGQVPILVIYDKNNRPSGIPDRFSGSSSGNTASLTITGAQAEDEADYYCNSRDSSGNAVVFGGGTKLTVL
B6: anti-SARS-CoV-2 antibody 966 (antibody, V domains shown)
VH: QVQLVESGGGVVQPGRSLRLSCAASEFTFSSYGMHWVRQAPGKGLEWVAVISHDGSNEYYADSVKGRFTISRDNSKNTLYLQMNSLRAEDTAVYYCAKWRGPHRGYYDRSGYYLGSSRDDYWGQGTLVTVSS
VL: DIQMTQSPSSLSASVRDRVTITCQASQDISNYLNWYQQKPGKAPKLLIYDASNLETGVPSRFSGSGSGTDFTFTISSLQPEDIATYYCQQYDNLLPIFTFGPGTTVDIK
B7: anti-SARS-CoV-2 antibody 1015 (antibody, V domains shown)
VH: EVQLVESGGGLVQPGGSLRLSCAASGFTFSSYWMHWVRQAPGKGLVWVSHINSDGSSTSYADSVKGRFTISRDNAKNTLYLQMNSLRAEDTAVYYCARGLRYFDLDVWGQGTTVTVSS
VL: QSVLTQPPSVSEAPRQRVTISCSGSSSNIGNNAVNWYQQLPGKAPKLLIFYDDLLPSGVSDRFSGSKSGTSASLAISGLQSEDEADYYCAAWDDSLNGGVFGGGTKLTVL
B8: anti-SARS-CoV-2 antibody 1037 (antibody, V domains shown)
VH: QITLKESGPTLVKPTQTLTLTCTFSGFSLSTSGVGVGWIRQPPGKALEWLALIYWDDDKRYSPSLKSRLTITKDTSKNQVVLTMTNMDPVDTATYYCAHHTITRINDYWGQGTLVTVSS
VL: QSALTQPASVSGSPGQSITISCTATSSDVGAYNYVSWYQQHPGKAPKLMIYDVSKRPSGVSNRFSGSKSGNTASLTISGLQAEDEADYYCSSYTSSSTVFGGGTKLTVL
B9: anti-SARS-CoV-2 antibody 1012 (antibody, V domains shown)
VH: EVQVVESGGGLVQPGGSRRLSCTASGFTLRNYWMSWVRQAPGKGLEWVANIKQDGSEKYYVDSVKGRFTISRDNAKNSLYLQMDSLRAEDTAVYYCARGGRYCPGGSCPRWGRGTLVTVSS
VL: DIQMTQSPSSLSASVGDRVTITCQASQDISNFLNWYQLKPGEAPTLLIFDASKLETGVPSRFSGTGFGTDFTFTISSLQPEDTATYYCQQYDDLTSITLGQGTRLEIK
B10: anti-SARS-CoV-2 antibody 989 (antibody, V domains shown)
VH: QVQLQESGPGLVKPSQTLSLTCTVSGGSISSGSYYWSWIRQPAGKGLEWIGRIYTSGSTNYNPSLKSRVTMSVDTSKNHFSLKLRSVTAADTAVYYCARGIAVAGDDDYYYYYGLDVWGQGTTVTVSS
VL: SYELTQPPSVSVSPGQTARITCSGDALPKQYAYWYQQKPGQAPVMVINKDSERPSGIPERFSGSSSGTTVTLTISGVQAEDEADYYCHSADSSGTYWVFGGGTKLTVL
B11: anti-SARS-CoV-2 antibody 933 (antibody, V domains shown)
VH: QVQLVQSGAEVKKPGASVKVSCKASGYTFTTYDINWVRQATGQGLEWMGWMNPNSGYTDSAQKFQGRVTMTRNTSISTAYMELSSLRSEDTAVYYCASGRGVKTYYFDYWGQGTLVTVSS
VL: SYELTQPPSVSVSPGQTASITCSGDKLGDKSACWYQQKPGQSPVLVICQDTKRPSGIPERFSGSNSGNTATLTISGTQAMDEADYYCQAWDSRTVVFGGGTKLTVL
B12: antibody 533 (antibody, V domains shown)
VH: GVQLVESGGVVVQPGGSLRLSCAASGFSFDDYTMHWVRQAPGKGLEWVSLVSWDGGTTYYTDSVKGRFTISRDNSKNSLYLQMNSLRTEDTALYFCAKDSGRIVPAATFDYWGQGTLVTVSS
VL: DIQMTQSSSSLSASVGDRVTITCRASQDISNYLAWFQQKPGKAPKSLIYAASSLQSGVPSKFSGSGSGTDFTLTISSLQPEDFATYYCQQYYTYPLTFGGGTKVEIK
B13: antibody 547 (antibody, V domains shown)
VH: QVHLVESGGGVVQPGRSLRLSCAASGFALSSYAMHWVRQPPGKGLEWVALISYDGSVKKYADSVKGRITVSGDNSRNTLHLQINSLRADDTAVYYCVRGGVSGPNSFDLWGHGTMVTVSS
VL: DVVLTQSPLSLPVTLGQPASISCRSSQSLEYSVGNTYVNWFQQRPGQSPRRLIYKVSNRDSGVPDRFSGSGSGTDFTLQISRVEADDVGIYYCMQGTHWPVTFGQGTKVEIK
B14: antibody 537 (antibody, V domains shown)
VH: QVQLQQWGAGLLKPSETLSLTCAVYGGSFSGYYWSWIRQPPGKGLEWIGEINHSGSTNYNPSLKSRVTISVDTSKNQFSLKLSSVTAADTAVYYCARGLYYDMGGGFDYWGQGTLVTVSS
VL: not shown
B15: antibody 527 (antibody, V domains shown)
VH: QLQLQESGPGLVKPSETLSLTCTVSGGSISSSSYYWGWIRQPPGKGLEWIGSIYYSGSTYYNPSLKSRVTISVDTSKNQFSLKLSSVTAADTAMYYCASHVVVIASSYWCFDLWGRGTLVTVSS
VL: QSALTQPASVSGSPGQSITISCTGTSSDVGGYNYVSWYQQHPGKAPKLMIYDVSNRPSGVSNRFSGSKSGNTASLTISGLQAEDEADYYCSSYTSISTWVFGGGTKLTVL
B16: antibody 556 (antibody, V domains shown)
VH: QVQLVESGGGVVQPGRSLRLSCAASGFTFSSYAMHWVRQAPGKGLEWVAVISYDGSDKYYADSVKGRVTISRDNSKNTLYLQMNSLRVEDTAVFYCAKDDCSGGVCFPDYWGQGTLVTVSS
VL: QSALTQPASVSGSPGQSITISCTGTSSDVGGYNYVSWYQQHPGKAPKLMIYEVSIRPSGVSNRFSGSKSGNTASLTISGLQAEDEAAYYCSSYTSSSTLVFGGGTKLTVL
B17: antibody 541 (antibody, V domains shown)
VH: QVQLVQSGAEVKKPGASVKVSCKASGYTFTSYYVHWVRQAPGQSLEWMGVISPSTGSTTYAQNFQGRVTMTRDTSTTTVYMELSSLRSEDTAVYYCARDDYYDSTRYFDLWGRGTLVTVSS
VL: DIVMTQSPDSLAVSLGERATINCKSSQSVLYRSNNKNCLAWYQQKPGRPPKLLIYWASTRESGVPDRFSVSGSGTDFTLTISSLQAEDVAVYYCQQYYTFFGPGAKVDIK
B18: antibody 560 (antibody, V domains shown)
VH: EVQLVESGGGLVQPGGSLRLSCAASGFTISSNYMSWVRQAPGKGLEWVSVIYSGGSTYYADSVKGRFTISRDNSKNTLYLQMNSLRAEDTAVYYCAREEGEWEKDYYGMDVWGQGTTVTVSS
VL: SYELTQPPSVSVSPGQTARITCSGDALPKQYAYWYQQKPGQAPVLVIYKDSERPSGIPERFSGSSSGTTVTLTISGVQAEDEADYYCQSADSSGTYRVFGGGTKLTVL
B19: antibody 548 (antibody, V domains shown)
VH: QVQLVESGGGVVQPGRSLRLSCAASGFTFSSYAMHWVRQAPGKGLEWVAVISYDGSNKYYADSVKGRFTISRDNSKNTLYLQMNNLRAEDTAVYYCAKSGSGSYLSAFDIWGQGTMVTVSS
VL: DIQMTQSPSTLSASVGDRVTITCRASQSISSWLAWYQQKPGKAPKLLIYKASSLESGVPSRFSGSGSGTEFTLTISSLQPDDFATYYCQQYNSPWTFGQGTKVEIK
B20: antibody 536 (antibody, V domains shown)
VH: QVQLVESGGGVVQPGRSLRLSCAASGFTFSSYVMHWVRQAPGKGLEWVALISYDGSNKYYADSVKGRFTISRDNSKNTLYLQMNSLRAEDTAVYYCARGGHIRVGRYFDWLISYFDYWGQGTLVTVSS
VL: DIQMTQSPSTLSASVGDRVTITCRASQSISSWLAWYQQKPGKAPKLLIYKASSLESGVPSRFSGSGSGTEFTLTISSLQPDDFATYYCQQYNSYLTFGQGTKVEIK
B21: antibody 543 (antibody, V domains shown)
VH: EVQLVESGGGLVQPGRSLRLSCAASGFTFHDYAMHWVRQAPGKGLEWVSGISWNSGSIGYADSVKGRFTISRDNAKNSLYLQMNSLRAEDTALYYCAKDTFGSSSWYRGDSYYYYGMDVWGQGTTVTVSS
VL: QSALTQPASVSGSPGQSITISCTGTSSDVGGYNYVSWYQQHPGKAPKLMIYEVSNRPSGVSNRFSGSKSGNTASLTISGLQAEDEADYYCSSYTSSSTQRYVVFGGGTKLTVL
B22: antibody 545 (antibody, V domains shown)
VH: QVQLVQSGSELKKPGASVKVSCKASGYTFTSYAMNWVRQAPGQGLEWMGWINTNTGNPTYAQGFTGRFVFSLDTSVSTAYLQISVLKAEDTGVYYCARDHELPNSSSWFGHFEYWGQGTLVTVSS
VL: SYELTQPPSVSVSPGQTARITCSGDALPKQYAYWYQQKAGQAPVLVIYKDSERRSGIPERFSGSSSGTTVTLTISGVQAEDEADYYCQSADSSGTSVVFGGGTKLTVL
B23: antibody 546 (antibody, V domains shown)
VH: QVQLVESGGGVVQPGRSLRLSCAASGFTFSSYGMHWVRQAPGKGLEWVAVIWYDGSNKYYADSVKGRFTISRDNSKNTLYLQMNSLRAEDTAVYYCARNCGGDCVAGDGFDYWGQGTLVTVSS
VL: DIQMTQSPSSLSASVGDRVTITCRASQSISSYLNWYQQKPGKAPNLLIYAASSLQSGVPSRFSGSGSGTDFTLTISSLQPEDFATYYCQQSYSALTWTFGQGTKVEIK

What follows are binders tested against SARS-CoV-2 spike protein with D614G mutation (SARS-CoV-2, UniProt P0DTC2 14-1208).

Binder	Kd
B1	0.023 nM
B2	0.034 nM
B3	0.016 nM
B4	0.043 nM
B5	0.022 nM
B6	1.3 nM
B7	0.02 nM
B8	0.023 nM
B9	0.027 nM
B10	0.039 nM
B11	29 nM

The binders below were run against SARS-CoV-2 full length spike protein, V483A mutant (SARS-CoV-2, UniProt P0DTC2 14-1273).

Binder	median fold over isotype
B12	4.86 fold over isotype
B13	11.4 fold over isotype
B14	3.74 fold over isotype
B15	7.97 fold over isotype
B16	7.35 fold over isotype
B17	1.6 fold over isotype
B18	14.8 fold over isotype
B19	10.1 fold over isotype
B20	2.59 fold over isotype
B21	8.92 fold over isotype
B22	14.3 fold over isotype
B23	18.9 fold over isotype
